# Test results: paper PMC270082
# Key:
# [1] = molecular target: PcrG (residues 1-98) (P. aeruginosa strain CHA); assay: SPR
# [2] = molecular target: PcrG (1-74) (P. aeruginosa strain CHA); assay: SPR
# [3] = molecular target: PcrG (residues 1-98) (P. aeruginosa strain CHA); assay: native MS
substance,measurement,setting,value
PcrV (from UniProt G3XD49 1-294) (natural protein),Kd,[1],15.6 nM
same,koff,[1],0.00694 s⁻¹
same,kon,[1],445000 M⁻¹ s⁻¹
same,Kd,[2],15.6 nM
same,koff,[2],0.00491 s⁻¹
same,kon,[2],316000 M⁻¹ s⁻¹
same,stoichiometry N,[3],1
